Kd data for 13 sequences are collected here from the Immune Epitope Database (IEDB).

Some targets named below: HLA-B*38:01; HLA-B*39:01; HLA-B*39:06.
Holding throughout (assay): IEDB peptide-MHC binding, purified MHC/competitive/radioactivity; filed as Kd, often an IC50 or EC50 that approximates it; ≥ and ≤ were set here for values at or beyond the usual limits of such assays
Settings in all cases: source organism: Homo sapiens

A word on the Kd: it is the equilibrium constant for the complex coming apart.

In the case of FLFLFAVG, the Kd is at least 50 µM in the assay with HLA-B*38:01, 17.9 µM with HLA-B*39:01 and 0.405 µM with HLA-B*39:06.

For the sequence FRLLCALTSL, the equilibrium dissociation constant (Kd) with HLA-B*38:01 turned out to be 2.76 µM; in the assay with HLA-B*39:01, 0.29 µM; in the assay with HLA-B*39:06 it was 0.0074 µM.

For MRLLPLLA, the Kd in the assay with HLA-B*38:01 was at least 44.5 µM; in the assay with HLA-B*39:01, 0.062 µM; with HLA-B*39:06 it was 0.041 µM.

For the sequence NHSSPCLEQF, the Kd is at least 25.7 µM with HLA-B*39:01 and at least 50 µM with HLA-B*39:06.

For NRVMLPKA, the Kd with HLA-B*39:01 turned out to be 0.085 µM; with HLA-B*39:06, 0.041 µM.

On to NRVMLPKAA, for which the Kd was at least 50 µM in the assay with HLA-B*38:01, 0.035 µM with HLA-B*39:01 and 0.014 µM with HLA-B*39:06.

SASIPLTVVA: the Kd was at least 50 µM with HLA-B*38:01, at least 30.9 µM with HLA-B*39:01 and 0.31 µM with HLA-B*39:06.

On to SHLVEALYL, for which the dissociation constant (Kd) with HLA-B*38:01 is 0.01 µM; in the assay with HLA-B*39:01 it was 5.25 µM; with HLA-B*39:06 it was at least 35.6 µM.

SHVAVENAL: the equilibrium dissociation constant (Kd) with HLA-B*38:01 is 0.321 µM; with HLA-B*39:01 it was 0.011 µM; in the assay with HLA-B*39:06 it was 0.696 µM.

Consider THFPHQVIL, for which the Kd in the assay with HLA-B*38:01 stood at 0.142 µM; in the assay with HLA-B*39:01, 0.073 µM; with HLA-B*39:06 it was 2.6 µM.

As for TNLFLFLFAV, the Kd stood at 6.69 µM with HLA-B*38:01, 3.95 µM with HLA-B*39:01 and 0.354 µM with HLA-B*39:06.

WMRLLPLLA: the Kd is at least 50 µM with HLA-B*38:01, 0.865 µM with HLA-B*39:01 and 0.155 µM with HLA-B*39:06.

As for YHFLQIPT, the figures for the equilibrium dissociation constant (Kd) in the assay with HLA-B*38:01, in the assay with HLA-B*39:01 and with HLA-B*39:06 were 9.75 µM, 0.66 µM and 0.151 µM, respectively.
